The numbers were not newly measured in publication PMC3386632, which cites them from elsewhere.

For this series, the target named is integrin αIIbβ3 (Homo sapiens) (UniProt P08514).

Consider disagregin (from UniProt P36235), for which the Kd (in general, the concentration at which binding is half-saturated) was 40 nM.
